# In patent US20260242735A1 (UNIVERSIT T BASEL, published 2026):
# How the values were obtained:
# human CD33 P201A = human CD33 P201A (human, UniProt P20138 18-364); assay: alanine scan, flow cytometry;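 further: HEK293-T cells transiently expressing single-residue alanine mutants of CD33 (alanine swapped to serine), antibody binding read by fluorescence in duplicate, background-subtracted, expressed relative to wild-type CD33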
# human CD33 R202A = human CD33 R202A (human, UniProt P20138 18-364); assay: alanine scan, flow cytometry;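 further: HEK293-T cells transiently expressing single-residue alanine mutants of CD33 (alanine swapped to serine), antibody binding read by fluorescence in duplicate, background-subtracted, expressed relative to wild-type CD33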
# human CD33 P203A = human CD33 P203A (human, UniProt P20138 18-364); assay: alanine scan, flow cytometry;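 further: HEK293-T cells transiently expressing single-residue alanine mutants of CD33 (alanine swapped to serine), antibody binding read by fluorescence in duplicate, background-subtracted, expressed relative to wild-type CD33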
# human CD33 L210A = human CD33 L210A (human, UniProt P20138 18-364); assay: alanine scan, flow cytometry;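 further: HEK293-T cells transiently expressing single-residue alanine mutants of CD33 (alanine swapped to serine), antibody binding read by fluorescence in duplicate, background-subtracted, expressed relative to wild-type CD33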
# human CD33 T211A = human CD33 T211A (human, UniProt P20138 18-364); assay: alanine scan, flow cytometry
# human CD33 Q213A = human CD33 Q213A (human, UniProt P20138 18-364); assay: alanine scan, flow cytometry
# human CD33 A217S = human CD33 A217S (human, UniProt P20138 18-364); assay: alanine scan, flow cytometry
# human CD33 G218A = human CD33 G218A (human, UniProt P20138 18-364); assay: alanine scan, flow cytometry
# human CD33 G220A = human CD33 G220A (human, UniProt P20138 18-364); assay: alanine scan, flow cytometry
# human CD33 V221A = human CD33 V221A (human, UniProt P20138 18-364); assay: alanine scan, flow cytometry
# human CD33 T222A = human CD33 T222A (human, UniProt P20138 18-364); assay: alanine scan, flow cytometry
# human CD33 T223A = human CD33 T223A (human, UniProt P20138 18-364); assay: alanine scan, flow cytometry
# human CD33 E224A = human CD33 E224A (human, UniProt P20138 18-364); assay: alanine scan, flow cytometry
# human CD33 T226A = human CD33 T226A (human, UniProt P20138 18-364); assay: alanine scan, flow cytometry
# human CD33 I227A = human CD33 I227A (human, UniProt P20138 18-364); assay: alanine scan, flow cytometry
# human CD33 Q228A = human CD33 Q228A (human, UniProt P20138 18-364); assay: alanine scan, flow cytometry
# human CD33 N230A = human CD33 N230A (human, UniProt P20138 18-364); assay: alanine scan, flow cytometry
# human CD33 V231A = human CD33 V231A (human, UniProt P20138 18-364); assay: alanine scan, flow cytometry
# human CD33 P235A = human CD33 P235A (human, UniProt P20138 18-364); assay: alanine scan, flow cytometry
# human CD33 N237A = human CD33 N237A (human, UniProt P20138 18-364); assay: alanine scan, flow cytometry
# human CD33 P238A = human CD33 P238A (human, UniProt P20138 18-364); assay: alanine scan, flow cytometry
# human CD33 G241A = human CD33 G241A (human, UniProt P20138 18-364); assay: alanine scan, flow cytometry
# human CD33 F243A = human CD33 F243A (human, UniProt P20138 18-364); assay: alanine scan, flow cytometry
# human CD33 P244A = human CD33 P244A (human, UniProt P20138 18-364); assay: alanine scan, flow cytometry
# human CD33 G247A = human CD33 G247A (human, UniProt P20138 18-364); assay: alanine scan, flow cytometry
# human CD33 S248A = human CD33 S248A (human, UniProt P20138 18-364); assay: alanine scan, flow cytometry
# human CD33 K250A = human CD33 K250A (human, UniProt P20138 18-364); assay: alanine scan, flow cytometry
# human CD33 L197A = human CD33 L197A (human, UniProt P20138 18-364); assay: alanine scan, flow cytometry
# human CD33 E252A = human CD33 E252A (human, UniProt P20138 18-364); assay: alanine scan, flow cytometry
# human CD33 A255S = human CD33 A255S (human, UniProt P20138 18-364); assay: alanine scan, flow cytometry
# human CD33 V257A = human CD33 V257A (human, UniProt P20138 18-364); assay: alanine scan, flow cytometry
# human CD33 G260A = human CD33 G260A (human, UniProt P20138 18-364); assay: alanine scan, flow cytometry
# human CD33 I262A = human CD33 I262A (human, UniProt P20138 18-364); assay: alanine scan, flow cytometry
# human CD33 G263A = human CD33 G263A (human, UniProt P20138 18-364); assay: alanine scan, flow cytometry
# human CD33 A265S = human CD33 A265S (human, UniProt P20138 18-364); assay: alanine scan, flow cytometry
# human CD33 G266A = human CD33 G266A (human, UniProt P20138 18-364); assay: alanine scan, flow cytometry
# human CD33 L270A = human CD33 L270A (human, UniProt P20138 18-364); assay: alanine scan, flow cytometry
# human CD33 T200A = human CD33 T200A (human, UniProt P20138 18-364); assay: alanine scan, flow cytometry
# human CD33 R144A = target: T1, human CD33 R144A (human, UniProt P20138 18-364); assay: alanine scan, flow cytometry, HEK293-T;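 further: antibody binding to each alanine-substituted CD33 mutant expressed transiently in HEK293-T, read as fluorescence minus background, mean of duplicates, relative to wild-type CD33 set as 100%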
# T1 construct: alanine scan clone, transfected HEK293-T
# Sequence of human CD33 A265S (P20138 18-364 A265S limits assumed): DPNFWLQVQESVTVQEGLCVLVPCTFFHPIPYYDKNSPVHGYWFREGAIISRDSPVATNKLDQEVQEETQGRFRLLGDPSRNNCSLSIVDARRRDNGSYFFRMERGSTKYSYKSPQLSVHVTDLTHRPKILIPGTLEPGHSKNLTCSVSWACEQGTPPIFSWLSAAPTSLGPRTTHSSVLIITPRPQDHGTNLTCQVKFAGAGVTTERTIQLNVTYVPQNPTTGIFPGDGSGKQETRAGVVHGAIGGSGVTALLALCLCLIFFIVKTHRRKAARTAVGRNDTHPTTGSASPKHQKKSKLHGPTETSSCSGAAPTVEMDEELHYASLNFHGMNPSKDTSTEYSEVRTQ
# Sequence of human CD33 P238A (P20138 18-364 P238A limits assumed): as the sequence (P20138 18-364 A265S limits assumed) above, with P221A, S248A counted along it
# Sequence of human CD33 P244A (P20138 18-364 P244A limits assumed): as the sequence (P20138 18-364 A265S limits assumed) above, with P227A, S248A counted along it
# Sequence of human CD33 P201A (P20138 18-364 P201A limits assumed): as the sequence (P20138 18-364 A265S limits assumed) above, with P184A, S248A counted along it
# Sequence of human CD33 L210A (P20138 18-364 L210A limits assumed): as the sequence (P20138 18-364 A265S limits assumed) above, with L193A, S248A counted along it
# Sequence of human CD33 G247A (P20138 18-364 G247A limits assumed): as the sequence (P20138 18-364 A265S limits assumed) above, with G230A, S248A counted along it
# Sequence of human CD33 E224A (P20138 18-364 E224A limits assumed): as the sequence (P20138 18-364 A265S limits assumed) above, with E207A, S248A counted along it
# Sequence of human CD33 G260A (P20138 18-364 G260A limits assumed): as the sequence (P20138 18-364 A265S limits assumed) above, with G243A, S248A counted along it
# Sequence of human CD33 T211A (P20138 18-364 T211A limits assumed): as the sequence (P20138 18-364 A265S limits assumed) above, with T194A, S248A counted along it
# Sequence of human CD33 G241A (P20138 18-364 G241A limits assumed): as the sequence (P20138 18-364 A265S limits assumed) above, with G224A, S248A counted along it
# Sequence of human CD33 N237A (P20138 18-364 N237A limits assumed): as the sequence (P20138 18-364 A265S limits assumed) above, with N220A, S248A counted along it
# Sequence of human CD33 G220A (P20138 18-364 G220A limits assumed): as the sequence (P20138 18-364 A265S limits assumed) above, with G203A, S248A counted along it
# Sequence of human CD33 T200A (P20138 18-364 T200A limits assumed): as the sequence (P20138 18-364 A265S limits assumed) above, with T183A, S248A counted along it
# Sequence of human CD33 V257A (P20138 18-364 V257A limits assumed): as the sequence (P20138 18-364 A265S limits assumed) above, with V240A, S248A counted along it
binder,measurement,setting,value
"Refmab #6 (antibody, V domains shown, Full-length format is human IgG1 Fc silent (PG-LALA); also made as Fab; The alanine scan used IgG or Fab) VH: QVQLQQPGAEVVKPGASVKMSCKASGYTFTSYYIHWIKQTPGQGLEWVGVIYPGNDDISYNQKFQGKATLTADKSSTTAYMQLSSLTSEDSAVYYCAREVRLRYFDVWGQGTTVTVSS VL: EIVLTQSPGSLAVSPGERVTMSCKSSQSVFFSSSQKNYLAWYQQIPGQSPRLLIYWASTRESGVPDRFTGSGSGTDFTLTISSVQPEDLAIYYCHQYLSSRTFGQGTKLEIK",Mean % WT Binding,human CD33 P201A,115 % WT binding
same,Mean % WT Binding,human CD33 R202A,92.2 % WT binding
same,Mean % WT Binding,human CD33 P203A,103 % WT binding
same,Mean % WT Binding,human CD33 L210A,96.9 % WT binding
same,Mean % WT Binding,human CD33 T211A,92.2 % WT binding
same,Mean % WT Binding,human CD33 Q213A,98 % WT binding
same,Mean % WT Binding,human CD33 A217S,91 % WT binding
same,Mean % WT Binding,human CD33 G218A,98 % WT binding
same,Mean % WT Binding,human CD33 G220A,99.8 % WT binding
same,Mean % WT Binding,human CD33 V221A,94.6 % WT binding
same,Mean % WT Binding,human CD33 T222A,92.2 % WT binding
same,Mean % WT Binding,human CD33 T223A,110 % WT binding
same,Mean % WT Binding,human CD33 E224A,106 % WT binding
same,Mean % WT Binding,human CD33 T226A,96.5 % WT binding
same,Mean % WT Binding,human CD33 I227A,88.1 % WT binding
same,Mean % WT Binding,human CD33 Q228A,100 % WT binding
same,Mean % WT Binding,human CD33 N230A,83.8 % WT binding
same,Mean % WT Binding,human CD33 V231A,92.8 % WT binding
same,Mean % WT Binding,human CD33 P235A,84.3 % WT binding
same,Mean % WT Binding,human CD33 N237A,101 % WT binding
same,Mean % WT Binding,human CD33 P238A,114 % WT binding
same,Mean % WT Binding,human CD33 G241A,101 % WT binding
same,Mean % WT Binding,human CD33 F243A,98.2 % WT binding
same,Mean % WT Binding,human CD33 P244A,101 % WT binding
same,Mean % WT Binding,human CD33 G247A,105 % WT binding
same,Mean % WT Binding,human CD33 S248A,94.4 % WT binding
same,Mean % WT Binding,human CD33 K250A,98 % WT binding
same,Mean % WT Binding,human CD33 L197A,103 % WT binding
same,Mean % WT Binding,human CD33 E252A,108 % WT binding
same,Mean % WT Binding,human CD33 A255S,96.8 % WT binding
same,Mean % WT Binding,human CD33 V257A,98.1 % WT binding
same,Mean % WT Binding,human CD33 G260A,97.2 % WT binding
same,Mean % WT Binding,human CD33 I262A,99.4 % WT binding
same,Mean % WT Binding,human CD33 G263A,94.3 % WT binding
same,Mean % WT Binding,human CD33 A265S,107 % WT binding
same,Mean % WT Binding,human CD33 G266A,82.6 % WT binding
same,Mean % WT Binding,human CD33 L270A,105 % WT binding
same,Mean % WT Binding,human CD33 T200A,110 % WT binding
"Refmab #6 (antibody, V domains shown, The alanine scan used IgG or Fab) VH: QVQLQQPGAEVVKPGASVKMSCKASGYTFTSYYIHWIKQTPGQGLEWVGVIYPGNDDISYNQKFQGKATLTADKSSTTAYMQLSSLTSEDSAVYYCAREVRLRYFDVWGQGTTVTVSS VL: EIVLTQSPGSLAVSPGERVTMSCKSSQSVFFSSSQKNYLAWYQQIPGQSPRLLIYWASTRESGVPDRFTGSGSGTDFTLTISSVQPEDLAIYYCHQYLSSRTFGQGTKLEIK",Mean % WT Binding,human CD33 R144A,104 % WT binding
